Test results published in paper PMC5126634.

Columns and labels:
[1] = system: His51; assay: kinetics; conditions: 37 °C, multicomponent buffer: 100 mM acetate, 100 mM MES, 100 mM HEPES, 100 mM CHES, 100 mM CAPS
[2] = target: His51 (UniProt position 1526, FHTMWHVTRGA); assay: kinetics; conditions: 37 °C, multicomponent buffer: 100 mM acetate, 100 mM MES, 100 mM HEPES, 100 mM CHES, 100 mM CAPS
[3] = enzyme-substrate complex (pKes1, from kcat)
[4] = free enzyme (pKe1, from kcat/Km)

Row | Substance | pKa [1, 3] | pKa [1, 4] | pKa [2, 3] | pKa [2, 4]
1 | Dengue virus 2 NS2B-NS3 protease, unlinked complex (NS2BH + NS3pro) (Dengue virus 2 (DENV2)) | 8.2 ± 0.1 | 8.7 ± 0.7 |  | 
2 | Dengue virus 2 NS2B-NS3 protease, glycine-linked (NS2BH-gly-NS3pro) (Dengue virus 2 (DENV2)) |  |  | 8.6 ± 0.4 | 8.1 ± 0.3
